Test [1] has as its target Unmodified nucleosome core particle (X. laevis histone octamer on 147 bp Widom-601 DNA) (X. laevis).
In another test the target is H4K16ac nucleosome (X. laevis | , acetyl-lysine at K16).

B1: Wild-type Orc1 (1–214) BAH domain (domain or fragment)
chain: MAKTLKDLQGWEIITTDEQGNIIDGGQKRLRRRGAKTEHYLKRSSDGIKLGRGDSVVMHNEAAGTYSVYMIQELRLNTLNNVVELWALTYLRWFEVNPLAHYRQFNPDANILNRPLNYYNKLFSETANKNELYLTAELAELQLFNFIRVANVMDGSKWEVLKGNVDPERDFTVRYICEPTGEKFVDINIEDVKAYIKKVEPREAQEYLKDLTLP
modifications: N-alpha-acetyl on A2 (acetylated at the α-amino group when purified from eukaryotic cells)
For orientation: Kd means the concentration at which binding is half-saturated. On to B1, for which binding in test [1] was put at a Kd of 1.1 µM.

B2: Sir3 BAH D205Q (domain or fragment)
chain: MAKTLKDLDGWQVIITDDQGRVIDDNNRRRSRKRGGENVFLKRISDGLSFGKGESVIFNDNVTETYSVYLIHEIRLNTLNNVVEIWVFSYLRWFELKPKLYYEQFRPDLIKEDHPLEFYKDKFFNEVNKSELYLTAELSEIWLKDFIAVGQILPESQWNDSSIDKIEDRDFLVRYACEPTAEKFVPIDIFQIIRRVKEMEPKQSQEYLKRVSVP
Take B2: the figures for the Kd (in test [1]; with H4K16ac nucleosome) were 0.3 µM and 1.2 µM, respectively.

These data come from publication PMC6602975 (2019).
